What was measured:
huTIM-3/his (human) [1] = biological target: huTIM-3/his (human) (UniProt Q8TDQ0); experiment: Biacore sequential injection; value belongs to the 2nd antibody huIgG1; competitor (1st antibody) ABTIM3-hum21
huTIM-3/his (human) [2] = biological target: huTIM-3/his (human) (UniProt Q8TDQ0); experiment: Biacore, hTIM-3/his captured by anti-His antibody on a CM5 chip; first injection
huTIM-3/his (human) [3] = biological target: huTIM-3/his (human) (UniProt Q8TDQ0); experiment: Biacore sequential injection; value belongs to the 2nd antibody huIgG1; competitor (1st antibody) ABTIM3-hum11
huTIM-3/his (human) [4] = biological target: huTIM-3/his (human) (UniProt Q8TDQ0); experiment: Biacore sequential injection; value belongs to the 2nd antibody huIgG1; competitor (1st antibody) huIgG1
huTIM-3/his (human) [5] = biological target: huTIM-3/his (human) (UniProt Q8TDQ0); experiment: Biacore sequential injection; value belongs to the 2nd antibody huIgG1; competitor (1st antibody) ABTIM3-hum03

change in RU (2nd antibody injection) (huTIM-3/his (human) [1]): 4.5 RU
change in RU (1st antibody injection) (huTIM-3/his (human) [2]): 0.27 RU
change in RU (2nd antibody injection) (huTIM-3/his (human) [3]): 3.8 RU
change in RU (2nd antibody injection) (huTIM-3/his (human) [4]): 3.6 RU
change in RU (2nd antibody injection) (huTIM-3/his (human) [5]): 4.5 RU
Substance: huIgG1 (antibody)
